From US20170363643A1 come the findings set out here.

Experiment [1] addresses His-tagged recombinant human SMN protein (ProteinTech, catalog # ag14333) (human) (UniProt Q16637). Briefly: BLI (BLItz), His-tagged SMN immobilised on the biosensor tip, antibody in solution.
Experiment [2] shares this target. Briefly: Erenna sandwich assay, capture PT 60154-1-Ig; SMN 10 pg/mL, MPs 5 µg/well, Det Ab 50 ng/mL, Cap Ab/MP 25 µg/mg.
The target is the same in experiment [3]. Put plainly: Erenna sandwich assay, capture PT 60154-1-Ig; SMN 10 pg/mL, MPs 10 µg/well, Det Ab 50 ng/mL, Cap Ab/MP 25 µg/mg.
Experiment [4] has the same target. Briefly: Erenna sandwich assay, capture PT 60154-1-Ig; SMN 10 pg/mL, MPs 5 µg/well, Det Ab 100 ng/mL, Cap Ab/MP 25 µg/mg.
Experiment [5] shares this target. Put plainly: Erenna sandwich assay, capture PT 60154-1-Ig; SMN 10 pg/mL, MPs 5 µg/well, Det Ab 500 ng/mL, Cap Ab/MP 25 µg/mg.
Experiment [6] has the same target. Briefly: Erenna sandwich assay, capture PT 60154-1-Ig; SMN 10 pg/mL, MPs 10 µg/well, Det Ab 100 ng/mL, Cap Ab/MP 25 µg/mg.
For experiment [7] the target is unchanged. Put plainly: Erenna sandwich assay, capture PT 60154-1-Ig; SMN 10 pg/mL, MPs 10 µg/well, Det Ab 500 ng/mL, Cap Ab/MP 25 µg/mg.
Experiment [8] has the same target. Put plainly: Erenna sandwich assay, capture PT 60154-1-Ig; SMN 10 pg/mL, MPs 5 µg/well, Det Ab 1000 ng/mL, Cap Ab/MP 25 µg/mg.
The target is the same in experiment [9]. Briefly: Erenna sandwich assay, capture PT 60154-1-Ig; SMN 10 pg/mL, MPs 5 µg/well, Det Ab 50 ng/mL, Cap Ab/MP 12.5 µg/mg.
Experiment [10] has the same target. Briefly: Erenna sandwich assay, capture PT 60154-1-Ig; SMN 10 pg/mL, MPs 10 µg/well, Det Ab 1000 ng/mL, Cap Ab/MP 25 µg/mg.
The target is the same in experiment [11]. Put plainly: Erenna sandwich assay, capture PT 60154-1-Ig; SMN 10 pg/mL, MPs 10 µg/well, Det Ab 50 ng/mL, Cap Ab/MP 12.5 µg/mg.
For experiment [12] the target is unchanged. Put plainly: Erenna sandwich assay, capture PT 60154-1-Ig; SMN 10 pg/mL, MPs 5 µg/well, Det Ab 100 ng/mL, Cap Ab/MP 12.5 µg/mg.
Experiment [13] shares this target. Put plainly: Erenna sandwich assay, capture PT 60154-1-Ig; SMN 10 pg/mL, MPs 5 µg/well, Det Ab 500 ng/mL, Cap Ab/MP 12.5 µg/mg.
For experiment [14] the target is unchanged. Briefly: Erenna sandwich assay, capture PT 60154-1-Ig; SMN 10 pg/mL, MPs 10 µg/well, Det Ab 100 ng/mL, Cap Ab/MP 12.5 µg/mg.
The target is the same in experiment [15]. Put plainly: Erenna sandwich assay, capture PT 60154-1-Ig; SMN 10 pg/mL, MPs 10 µg/well, Det Ab 500 ng/mL, Cap Ab/MP 12.5 µg/mg.
For experiment [16] the target is unchanged. Put plainly: Erenna sandwich assay, capture PT 60154-1-Ig; SMN 10 pg/mL, MPs 5 µg/well, Det Ab 1000 ng/mL, Cap Ab/MP 12.5 µg/mg.
Experiment [17] shares this target. Put plainly: Erenna sandwich assay, capture PT 60154-1-Ig; SMN 10 pg/mL, MPs 10 µg/well, Det Ab 1000 ng/mL, Cap Ab/MP 12.5 µg/mg.

Sequence of UniProt Q16637 (Q16637 whole entry): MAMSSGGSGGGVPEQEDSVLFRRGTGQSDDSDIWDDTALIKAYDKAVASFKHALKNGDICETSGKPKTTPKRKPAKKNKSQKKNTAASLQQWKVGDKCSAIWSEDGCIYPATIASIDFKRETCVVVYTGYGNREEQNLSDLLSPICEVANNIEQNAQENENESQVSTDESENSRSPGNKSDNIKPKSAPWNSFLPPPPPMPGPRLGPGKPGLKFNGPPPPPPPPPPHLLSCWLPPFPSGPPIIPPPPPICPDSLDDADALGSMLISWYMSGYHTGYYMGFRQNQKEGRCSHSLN

Take “BD Biosciences anti-SMN (catalog #610647) (antibody)”: in experiment [1], the kon (as a rule, the second-order rate constant of association) was determined as 637000 M⁻¹ s⁻¹.
With “Enzo anti-SMN1 (catalog # ADI-NBA-202-200) (antibody)”, in experiment [1], the dissociation constant (Kd) (as a rule, the concentration at which binding is half-saturated) is less than 100 pM; the koff (in general, the first-order rate constant of dissociation) was less than 1e-07 s⁻¹; the kon was found to be 12300 M⁻¹ s⁻¹.
For “Millipore anti-SMN2 (catalog # MABE230) (antibody)”, in experiment [1], the dissociation constant (Kd) is less than 1 pM. The off-rate constant (koff) in experiment [1] is less than 1e-07 s⁻¹. Also, in experiment [1], the kon was found to be 105000 M⁻¹ s⁻¹. Also, the detected events (DE) (detected events) in experiment [2] is 256; in experiment [3] it was 269; in [4] it was 481; in experiment [5] it was 2040; in [6], 505; in experiment [7], 2140. The detected events (DE) (detected events) in [8] is 3440; in experiment [9] it was 231; in experiment [10] it was 3370; in experiment [11], 302; in experiment [12] it was 501; in [13] it was 1960. Also, the detected events (DE) (detected events) came out at 523 in experiment [14], 2180 in experiment [15], 3570 in experiment [16] and 3720 in experiment [17].
For the substance “ProteinTech anti-SMN2 (catalog #60154-2-Ig) (antibody)”, in experiment [1], the equilibrium dissociation constant (Kd) was less than 1000 pM, the dissociation rate constant (koff) was less than 1e-07 s⁻¹ and the kon was found to be 884 M⁻¹ s⁻¹.
